Laboratory results reported in patent US20190241648A1 (STATEN BIOTECHNOLOGY B V, published 2019).
Ends that are not written are not given here.

Legend:
Assay in all cases: peptide microarray
ApoC3 peptide … L50N = target: T1, ApoC3 peptide … L50N (human, not fully specified; cyclic constrained)
T1 peptide: ARGWVTDGFSSNK
In short: (§1)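 Peptide microarrays of ApoC3-derived peptides incubated with antibody samples, then stained with goat anti-human IgG (Fc) DyLight680 (1:5000) and anti-HA DyLight800 (1:2000) control. Read-out by fluorescence scanning at intensities 7/7 (red/green); a secondary-only pre-stain checked background, HA frame peptides served as quality control.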

ApoC3 peptide … A39Q = target: T2, ApoC3 peptide … A39Q (human, not fully specified (bridges); also: cyclic constrained)
T2 peptide: QRGWVTDGFSSLK
In short: as §1

ApoC3 peptide … V43Y = target: T3, ApoC3 peptide … V43Y (human, not fully specified (bridges); also: cyclic constrained)
T3 peptide: ARGWYTDGFSSLK
In short: as §1

ApoC3 peptide … G46L = target: T4, ApoC3 peptide … G46L (human, not fully specified (bridges); also: cyclic constrained)
T4 peptide: ARGWVTDLFSSLK
In short: as §1

ApoC3 peptide … S49Y = target: T5, ApoC3 peptide … S49Y (human, not fully specified (bridges); also: cyclic constrained)
T5 peptide: ARGWVTDGFSYLK
In short: as §1

ApoC3 peptide … K51A = target: T6, ApoC3 peptide … K51A (human, thioether (positions not given here); also: cyclic constrained)
T6 peptide: ARGWVTDGFSSLA
In short: as §1

ApoC3 peptide … G46C = target: T7, ApoC3 peptide … G46C (human, also: cyclic constrained)
T7 peptide: ARGWVTDCFSSLK
In short: as §1

ApoC3 peptide … S48A = target: T8, ApoC3 peptide … S48A (human, thioether (positions not given here); also: cyclic constrained)
T8 peptide: ARGWVTDGFASLK
In short: as §1

ApoC3 peptide … L50M = target: T9, ApoC3 peptide … L50M (human, not fully specified; cyclic constrained)
T9 peptide: ARGWVTDGFSSMK
In short: as §1

ApoC3 peptide … W42I = target: T10, ApoC3 peptide … W42I (human, not fully specified (bridges); also: cyclic constrained)
T10 peptide: ARGIVTDGFSSLK
In short: as §1

ApoC3 peptide … K51I = target: T11, ApoC3 peptide … K51I (human, not fully specified; cyclic constrained)
T11 peptide: ARGWVTDGFSSLI
In short: as §1

ApoC3 peptide … G46Q = target: T12, ApoC3 peptide … G46Q (human, not fully specified (bridges); also: cyclic constrained)
T12 peptide: ARGWVTDQFSSLK
In short: as §1

ApoC3 peptide … F47W = target: T13, ApoC3 peptide … F47W (human, also: cyclic constrained)
T13 peptide: ARGWVTDGWSSLK
In short: as §1

ApoC3 peptide … F47M = target: T14, ApoC3 peptide … F47M (human, not fully specified (bridges); also: cyclic constrained)
T14 peptide: ARGWVTDGMSSLK
In short: as §1

ApoC3 peptide … F47G = target: T15, ApoC3 peptide … F47G (human, not fully specified (bridges); also: cyclic constrained)
T15 peptide: ARGWVTDGGSSLK
In short: as §1

ApoC3 peptide … F47L = target: T16, ApoC3 peptide … F47L (human, not fully specified (bridges); also: cyclic constrained)
T16 peptide: ARGWVTDGLSSLK
In short: as §1

ApoC3 peptide … A39N = target: T17, ApoC3 peptide … A39N (human, cyclic constrained)
T17 peptide: NRGWVTDGFSSLK
In short: as §1

ApoC3 peptide … R40Y = target: T18, ApoC3 peptide … R40Y (human, thioether (positions not given here); also: cyclic constrained)
T18 peptide: AYGWVTDGFSSLK
In short: as §1

ApoC3 peptide … R40T = target: T19, ApoC3 peptide … R40T (human, not fully specified (bridges); also: cyclic constrained)
T19 peptide: ATGWVTDGFSSLK
In short: as §1

ApoC3 peptide … S48T = ApoC3 peptide … S48T (human, cyclic constrained)
In short: as §1

ApoC3 peptide … W42T = target: T20, ApoC3 peptide … W42T (human, not fully specified (bridges); also: cyclic constrained)
T20 peptide: ARGTVTDGFSSLK
In short: as §1

ApoC3 peptide … V43E = target: T21, ApoC3 peptide … V43E (human, not fully specified; cyclic constrained)
T21 peptide: ARGWETDGFSSLK
In short: as §1

ApoC3 peptide … S48M = ApoC3 peptide … S48M (human, cyclic constrained)
In short: as §1

ApoC3 peptide … V43H = target: T22, ApoC3 peptide … V43H (human, not fully specified; cyclic constrained)
T22 peptide: ARGWHTDGFSSLK
In short: as §1

ApoC3 peptide … F47N = target: T23, ApoC3 peptide … F47N (human, not fully specified (bridges); also: cyclic constrained)
T23 peptide: ARGWVTDGNSSLK
In short: as §1

ApoC3 peptide … G46D = target: T24, ApoC3 peptide … G46D (human, also: cyclic constrained)
T24 peptide: ARGWVTDDFSSLK
In short: as §1

ApoC3 peptide … G41R = target: T25, ApoC3 peptide … G41R (human, also: cyclic constrained)
T25 peptide: ARRWVTDGFSSLK
In short: as §1

ApoC3 peptide … S49R = target: T26, ApoC3 peptide … S49R (human, not fully specified (bridges); also: cyclic constrained)
T26 peptide: ARGWVTDGFSRLK
In short: as §1

ApoC3 peptide … L50F = target: T27, ApoC3 peptide … L50F (human, not fully specified; cyclic constrained)
T27 peptide: ARGWVTDGFSSFK
In short: as §1

ApoC3 peptide … T44V = target: T28, ApoC3 peptide … T44V (human, not fully specified (bridges); also: cyclic constrained)
T28 peptide: ARGWVVDGFSSLK
In short: as §1

- % of binding to wild-type peptide (ApoC3 peptide … L50N): 0%
- % of binding to wild-type peptide (ApoC3 peptide … A39Q): 104%
- % of binding to wild-type peptide (ApoC3 peptide … V43Y): 230%
- % of binding to wild-type peptide (ApoC3 peptide … G46L): 0%
- % of binding to wild-type peptide (ApoC3 peptide … S49Y): 0%
- % of binding to wild-type peptide (ApoC3 peptide … K51A): 10.1%
- % of binding to wild-type peptide (ApoC3 peptide … G46C): 0%
- % of binding to wild-type peptide (ApoC3 peptide … S48A): 75.5%
- % of binding to wild-type peptide (ApoC3 peptide … L50M): 0.65%
- % of binding to wild-type peptide (ApoC3 peptide … W42I): 27.9%
- % of binding to wild-type peptide (ApoC3 peptide … K51I): 0.86%
- % of binding to wild-type peptide (ApoC3 peptide … G46Q): 0%
- % of binding to wild-type peptide (ApoC3 peptide … F47W): 1.57%
- % of binding to wild-type peptide (ApoC3 peptide … F47M): 0%
- % of binding to wild-type peptide (ApoC3 peptide … F47G): 0%
- % of binding to wild-type peptide (ApoC3 peptide … F47L): 4.56%
- % of binding to wild-type peptide (ApoC3 peptide … A39N): 103%
- % of binding to wild-type peptide (ApoC3 peptide … R40Y): 37.5%
- % of binding to wild-type peptide (ApoC3 peptide … R40T): 38.7%
- % of binding to wild-type peptide (ApoC3 peptide … S48T): 88.3%
- % of binding to wild-type peptide (ApoC3 peptide … W42T): 186%
- % of binding to wild-type peptide (ApoC3 peptide … V43E): 0%
- % of binding to wild-type peptide (ApoC3 peptide … S48M): 121%
- % of binding to wild-type peptide (ApoC3 peptide … V43H): 14.6%
- % of binding to wild-type peptide (ApoC3 peptide … F47N): 0.06%
- % of binding to wild-type peptide (ApoC3 peptide … G46D): 0%
- % of binding to wild-type peptide (ApoC3 peptide … G41R): 19.4%
- % of binding to wild-type peptide (ApoC3 peptide … S49R): 0.74%
- % of binding to wild-type peptide (ApoC3 peptide … L50F): 56.6%
- % of binding to wild-type peptide (ApoC3 peptide … T44V): 4.26%
B1: anti-ApoC3 antibody 14C7 (antibody, V domains shown)
VH: QVQVQESGPGLVKPSQTLSLTCTVSGGSITTNSYYWSWIRQPPGKGLEWMGAIDYSGDTYYSPSLKSRTSISRDTSKNQFTLQLTSVTPEDTAVYYCVSRIPTGEYWGQGTQVTVSS
VL: QTVVTQEPSLSVSPGGTVTLTCGLNSGSVTSSNYPDWYQQTPGQAPRLLIYNTNSRHSGVPSRFSGSISGNKAALTITGAQPEDEADYYCALYMGSDSVVFGGGTHLTVL
notes: it was detected with goat anti-human IgG (Fc); also called mAb 14C7; llama antibody 14C7
